Substitutions are numbered along the chain they refer to. In names and notes the source's numbering stands. Values belong to the binder of their own block, whether it stands above or below them.
Biological target: poly(A)-binding protein (PABP), P11940
Test: co-immunoprecipitation with anti-FLAG antibody, Western blot quantified with ImageJ
Conditions: chain shown with the change, HeLa cells, parent: est. 1.0, read off a plot

Chain of poly(A)-binding protein (PABP), P11940 (P11940 whole entry): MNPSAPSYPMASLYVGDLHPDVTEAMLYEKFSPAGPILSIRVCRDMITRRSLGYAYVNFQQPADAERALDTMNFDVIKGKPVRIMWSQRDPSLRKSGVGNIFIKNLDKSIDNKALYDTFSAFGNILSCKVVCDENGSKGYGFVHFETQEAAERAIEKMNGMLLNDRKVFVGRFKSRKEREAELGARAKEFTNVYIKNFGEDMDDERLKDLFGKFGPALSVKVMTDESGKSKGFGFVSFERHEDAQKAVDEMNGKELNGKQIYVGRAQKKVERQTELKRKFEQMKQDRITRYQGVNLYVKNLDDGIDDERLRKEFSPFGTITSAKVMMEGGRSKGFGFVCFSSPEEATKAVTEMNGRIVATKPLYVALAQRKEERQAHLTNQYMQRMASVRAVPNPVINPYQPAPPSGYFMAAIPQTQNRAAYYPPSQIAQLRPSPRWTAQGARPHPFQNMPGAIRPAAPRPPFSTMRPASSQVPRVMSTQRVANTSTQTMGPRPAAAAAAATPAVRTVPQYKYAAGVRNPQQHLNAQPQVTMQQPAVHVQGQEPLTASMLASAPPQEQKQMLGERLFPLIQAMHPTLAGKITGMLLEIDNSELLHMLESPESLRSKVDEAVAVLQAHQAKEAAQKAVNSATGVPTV

response (three independent experiments): 1.4
B1: FLAG-HA-SBP (FHS)-tagged TNRC6A-SD-WT, Q8NDV7-2 S1332A; S1346A (protein)
chain: PLHQPAMKSFLDNVMPHTTPELQKGPSPINAFSNFPIGLNSNLNVNMDMNSIKEPQSRLRKWTTVDSISVNTSLDQNSSKHGAISSGFRLEESPFVPYDFMNSSTSPAAPPGSIGDGWPRAKAPNGSSSVNWPPEFRPGEPWKGYPNIDPETDPYVTPGSVINNLSINTVREVDHLRDRNSGSSSSLNTTLPSTSAWSSIRASNYNVPLSSTAQSTSARNSDSKLTWSPGSVTNTSLAHELWKVPLPPKNITAPSRPPPGLTGQKPPLSTWDNSPLRIGGGWGNSDARYTPGSSWGESSSGRITNWLVLKNLTPQIDGSTLRTLCMQHGPLITFHLNLPHGNALVRYSSKEEVVKAQKSLHMCVLGNTTILAEFASEEEISRFFAQSQSLTPSPGWQSLGSSQSRLGSLDCSHSFSSRTDLNHWNGAGLSGTNCGDLHGTSLWGTPHYSTSLWGPPSSSDPRGISSPSPINAFLSVDHLGGGGESM

response (three independent experiments): 0.54
B2: FLAG-HA-SBP (FHS)-tagged TNRC6A-SD-WT, Q8NDV7-2 S1616D; S1691D (protein)
chain: B1 chain with A109S, A123S, S393D, S468D

response (three independent experiments): 1.1
B3: FLAG-HA-SBP (FHS)-tagged TNRC6A-SD-WT, Q8NDV7-2 S1332D; S1346D (protein)
chain: B1 chain with A109D, A123D

response (two independent experiments): 1.7
B4: FLAG-HA-SBP (FHS)-tagged full-length TNRC6A, wild type, Q8NDV7-2 S1332A; S1346A (protein)
chain: MDADSASSSESERNITIMASGNTGGEKDGLRNSTGLGSQNKFVVGSSSNNVGHGSSTGPWGFSHGAIISTCQVSVDAPESKSESSNNRMNAWGTVSSSSNGGLNPSTLNSASNHGAWPVLENNGLALKGPVGSGSSGINIQCSTIGQMPNNQSINSKVSGGSTHGTWGSLQETCESEVSGTQKVSFSGQPQNITTEMTGPNNTTNFMTSSLPNSGSVQNNELPSSNTGAWRVSTMNHPQMQAPSGMNGTSLSHLSNGESKSGGSYGTTWGAYGSNYSGDKCSGPNGQANGDTVNATLMQPGVNGPMGTNFQVNTNKGGGVWESGAANSQSTSWGSGNGANSGGSRRGWGTPAQNTGTNLPSVEWNKLPSNQHSNDSANGNGKTFTNGWKSTEEEDQGSATSQTNEQSSVWAKTGGTVESDGSTESTGRLEEKGTGESQSRDRRKIDQHTLLQSIVNRTDLDPRVLSNSGWGQTPIKQNTAWDTETSPRGERKTDNGTEAWGSSATQTFNSGACIDKTSPNGNDTSSVSGWGDPKPALRWGDSKGSNCQGGWEDDSAATGMVKSNQWGNCKEEKAAWNDSQKNKQGWGDGQKSSQGWSVSASDNWGETSRNNHWGEANKKSSSGGSDSDRSVSGWNELGKTSSFTWGNNINPNNSSGWDESSKPTPSQGWGDPPKSNQSLGWGDSSKPVSSPDWNKQQDIVGSWGIPPATGKPPGTGWLGGPIPAPAKEEEPTGWEEPSPESIRRKMEIDDGTSAWGDPSKYNYKNVNMWNKNVPNGNSRSDQQAQVHQLLTPASAISNKEASSGSGWGEPWGEPSTPATTVDNGTSAWGKPIDSGPSWGEPIAAASSTSTWGSSSVGPQALSKSGPKSMQDGWCGDDMPLPGNRPTGWEEEEDVEIGMWNSNSSQELNSSLNWPPYTKKMSSKGLSGKKRRRERGMMKGGNKQEEAWINPFVKQFSNISFSRDSPEENVQSNKMDLSGGMLQDKRMEIDKHSLNIGDYNRTVGKGPGSRPQISKESSMERNPYFDKDGIVADESQNMQFMSSQSMKLPPSNSALPNQALGSIAGLGMQNLNSVRQNGNPSMFGVGNTAAQPRGMQQPPAQPLSSSQPNLRAQVPPPLLSPQVPVSLLKYAPNNGGLNPLFGPQQVAMLNQLSQLNQLSQISQLQRLLAQQQRAQSQRSVPSGNRPQQDQQGRPLSVQQQMMQQSRQLDPNLLVKQQTPPSQQQPLHQPAMKSFLDNVMPHTTPELQKGPSPINAFSNFPIGLNSNLNVNMDMNSIKEPQSRLRKWTTVDSISVNTSLDQNSSKHGAISSGFRLEESPFVPYDFMNSSTSPAAPPGSIGDGWPRAKAPNGSSSVNWPPEFRPGEPWKGYPNIDPETDPYVTPGSVINNLSINTVREVDHLRDRNSGSSSSLNTTLPSTSAWSSIRASNYNVPLSSTAQSTSARNSDSKLTWSPGSVTNTSLAHELWKVPLPPKNITAPSRPPPGLTGQKPPLSTWDNSPLRIGGGWGNSDARYTPGSSWGESSSGRITNWLVLKNLTPQIDGSTLRTLCMQHGPLITFHLNLPHGNALVRYSSKEEVVKAQKSLHMCVLGNTTILAEFASEEEISRFFAQSQSLTPSPGWQSLGSSQSRLGSLDCSHSFSSRTDLNHWNGAGLSGTNCGDLHGTSLWGTPHYSTSLWGPPSSSDPRGISSPSPINAFLSVDHLGGGGESM

response (two independent experiments): 0.89
B5: FLAG-HA-SBP (FHS)-tagged full-length TNRC6A, wild type, Q8NDV7-2 S1616D; S1691D (protein)
chain: B4 chain with A1332S, A1346S, S1616D, S1691D
